Substrate in the data set: CC[C@H](C)[C@H](NC(=O)[C@H](CC(=O)O)NC(=O)[C@H](CCCNC(=N)N)NC(=O)[C@H](C)N)C(=O)N[C@@H](Cc1ccc(O)cc1)C(=O)N[C@@H](CCCNC(=N)N)C(=O)N[C@@H](C)C(=O)N[C@@H](CO)C(=O)N[C@@H](Cc1ccccc1)C(=O)N[C@@H](Cc1ccccc1)C(=O)N[C@@H](CCCNC(=N)N)C(=O)N[C@@H](CCCCN)C(=O)NCC(=O)NCC(=O)N[C@@H](CS)C(=O)N[C@@H](C)C(=O)N[C@@H](CCSC)C(=O)N[C@@H](CC(C)C)C(=O)N1CCC[C@H]1C(=O)N[C@H](C(=O)N[C@@H](CCCCN)C(=O)O)C(C)C
The experiment in a line: Peptide phosphorylation (radioactive assay) with rALK. In kind it is biochemical, human. The following applies: other: kinetic constants for rALK with synthetic peptides as substrate; pH 7.5; 30.0 °C.

The record followed here is patent publication US20070031907A1, “Anaplastic lymphoma kinase assay, reagents and compositions thereof” (Istituto Nazionale Per Lo Studio E La Cura Dei Tumori, priority 2003, published 2007).

Procedure: The reactions were terminated after 10 min of incubation at 30° C. by spotting 25 μl of the mixture onto P81 phosphocellulose papers, which were processed as described elsewhere (1). Kinetic constants were determined by GraphPad Prism software fitting the data directly to the Michaelis-Menten equation using nonlinear regression.

B1: rALK (ALK catalytic domain, Leu1073 to Ala1459) (Homo sapiens) (protein)
chain: LQSPEYKLSKLRTSTIMTDYNPNYCFAGKTSSISDLKEVPRKNITLIRGLGHGAFGEVYEGQVSGMPNDPSPLQVAVKTLPEVCSEQDELDFLMEALIISKFNHQNIVRCIGVSLQSLPRFILLELMAGGDLKSFLRETRPRPSQPSSLAMLDLLHVARDIACGCQYLEENHFIHRDIAARNCLLTCPGPGRVAKIGDFGMARDIYRASYYRKGGCAMLPVKWMPPEAFMEGIFTSKTDTWSFGVLLWEIFSLGYMPYPSKSNQEVLEFVTSGGRMDPPKNCPGPVYRIMTQCWQHQPEDRPNFAIILERIEYCTQDPDVINTALPIEYGPLVEEEEKVPVRPKDPEGVPPLLVSQQAKREEERSPAAPPPLPTTSSGKAAKKPTAA
notes: A portion of ALK, stretching from amino acids Leu^1073 to Ala^1459, has been cloned into the baculovirus transfer vector; made in house; host or cells: Sf9 (Spodoptera frugiperda) insect cells, baculovirus (pBlueBacHis2C, MaxBac 2.0)
The Km is the concentration of substrate that gives half-maximal velocity. One may read the Vmax as the rate approached at saturating substrate. B1: the Km was 109.4 µM and the Vmax turned out to be 0.000186 µmol/min.
